Each block holds one binder with its values, some of them ahead of it. Numbered stars: 1 amine (or outer) side, 2 acyl side, 3 side chain; on linkers, the order of the positions; unused ones are H or OH. Bridge positions count the residues as written; N and C are the ends. Side chains are listed from the residue outwards. Ends that are not written are not given here. * marks the point of attachment. C20 diacid = O=C(O)CCCCCCCCCCCCCCCCCCC(=O)*; γGlu = O=C(O)[C@H](CCC(=O)[*:2])N[*:1]
Biological target: T1, human amylin receptor (amylin 3(a) receptor: human calcitonin receptor with RAMP-3) (human, UniProt P30988 25-474; O60896 24-148)
T1 construct: whole, on cells; also called hAmylin-R; hAmylinR
T1 sequence (looked up) 1: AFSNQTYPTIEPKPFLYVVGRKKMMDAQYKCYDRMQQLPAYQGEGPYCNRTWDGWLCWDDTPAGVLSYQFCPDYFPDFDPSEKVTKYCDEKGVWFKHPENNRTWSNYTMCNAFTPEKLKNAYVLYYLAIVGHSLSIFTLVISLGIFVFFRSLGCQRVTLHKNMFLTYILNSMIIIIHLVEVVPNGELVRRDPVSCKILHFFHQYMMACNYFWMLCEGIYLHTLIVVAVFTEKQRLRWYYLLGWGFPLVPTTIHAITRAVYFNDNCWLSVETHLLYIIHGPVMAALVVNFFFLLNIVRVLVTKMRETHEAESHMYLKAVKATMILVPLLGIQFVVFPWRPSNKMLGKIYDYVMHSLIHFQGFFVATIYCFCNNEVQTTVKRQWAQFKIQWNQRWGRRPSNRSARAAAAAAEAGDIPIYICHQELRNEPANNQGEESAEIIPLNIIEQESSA
T1 sequence (looked up) 2: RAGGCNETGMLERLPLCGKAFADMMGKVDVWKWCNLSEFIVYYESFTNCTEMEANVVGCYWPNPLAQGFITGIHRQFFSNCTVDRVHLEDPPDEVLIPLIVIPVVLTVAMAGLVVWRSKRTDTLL
Test: SPA displacement of 125I-rat amylin, hAmylin 3(a) receptor membranes
Procedure, shortened: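 SPA beads + BHK amylin 3(a)/CRE-luc membranes, 35 ng/μL final; buffer 50 mM Hepes pH 7.4, 1 mM CaCl2, 5 mM MgCl₂, 0.1% OA, 0.02% Tween20. 120 min, 25° C, shaken; scintillation count. IC₅₀ by one-site binding competition fit, taken as receptor affinity.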

- IC50: 0.97 nM
B1: N^ε1-[(4S)-4-carboxy-4-(19-carboxynonadecanoylamino)butanoyl]-[Arg17,Pro21,Pro27,Lys35]-h-amylin (peptide)
peptide: K([γGlu-C20 diacid])CNTATCATQRLANFLRHSSPNFGAIPSSTNVGSKTY-NH2
modifications: disulfide 2-7; N-terminus assumed
SMILES: CC[C@H](C)[C@H](NC(=O)[C@H](C)NC(=O)CNC(=O)[C@H](Cc1ccccc1)NC(=O)[C@H](CC(N)=O)NC(=O)[C@@H]1CCCN1C(=O)[C@H](CO)NC(=O)[C@H](CO)NC(=O)[C@H](Cc1c[nH]cn1)NC(=O)[C@H](CCCNC(=N)N)NC(=O)[C@H](CC(C)C)NC(=O)[C@H](Cc1ccccc1)NC(=O)[C@H](CC(N)=O)NC(=O)[C@H](C)NC(=O)[C@H](CC(C)C)NC(=O)[C@H](CCCNC(=N)N)NC(=O)[C@H](CCC(N)=O)NC(=O)[C@@H](NC(=O)[C@H](C)NC(=O)[C@@H]1CSSC[C@H](NC(=O)[C@@H](N)CCCCNC(=O)CC[C@H](NC(=O)CCCCCCCCCCCCCCCCCCC(=O)O)C(=O)O)C(=O)N[C@@H](CC(N)=O)C(=O)N[C@@H]([C@@H](C)O)C(=O)N[C@@H](C)C(=O)N[C@@H]([C@@H](C)O)C(=O)N1)[C@@H](C)O)C(=O)N1CCC[C@H]1C(=O)N[C@@H](CO)C(=O)N[C@@H](CO)C(=O)N[C@H](C(=O)N[C@@H](CC(N)=O)C(=O)N[C@H](C(=O)NCC(=O)N[C@@H](CO)C(=O)N[C@@H](CCCCN)C(=O)N[C@H](C(=O)N[C@@H](Cc1ccc(O)cc1)C(N)=O)[C@@H](C)O)C(C)C)[C@@H](C)O
notes: also called 35; compound 35

- IC50: 0.828 nM
B2: N^ε1-[(4S)-4-carboxy-4-(19-carboxynonadecanoylamino)butanoyl]-[Glu14,Arg17,Pro21,Pro27,Arg35]-h-amylin (peptide)
peptide: K([γGlu-C20 diacid])CNTATCATQRLAEFLRHSSPNFGAIPSSTNVGSRTY-NH2
modifications: disulfide 2-7; N-terminus assumed
SMILES: CC[C@H](C)[C@H](NC(=O)[C@H](C)NC(=O)CNC(=O)[C@H](Cc1ccccc1)NC(=O)[C@H](CC(N)=O)NC(=O)[C@@H]1CCCN1C(=O)[C@H](CO)NC(=O)[C@H](CO)NC(=O)[C@H](Cc1c[nH]cn1)NC(=O)[C@H](CCCNC(=N)N)NC(=O)[C@H](CC(C)C)NC(=O)[C@H](Cc1ccccc1)NC(=O)[C@H](CCC(=O)O)NC(=O)[C@H](C)NC(=O)[C@H](CC(C)C)NC(=O)[C@H](CCCNC(=N)N)NC(=O)[C@H](CCC(N)=O)NC(=O)[C@@H](NC(=O)[C@H](C)NC(=O)[C@@H]1CSSC[C@H](NC(=O)[C@@H](N)CCCCNC(=O)CC[C@H](NC(=O)CCCCCCCCCCCCCCCCCCC(=O)O)C(=O)O)C(=O)N[C@@H](CC(N)=O)C(=O)N[C@@H]([C@@H](C)O)C(=O)N[C@@H](C)C(=O)N[C@@H]([C@@H](C)O)C(=O)N1)[C@@H](C)O)C(=O)N1CCC[C@H]1C(=O)N[C@@H](CO)C(=O)N[C@@H](CO)C(=O)N[C@H](C(=O)N[C@@H](CC(N)=O)C(=O)N[C@H](C(=O)NCC(=O)N[C@@H](CO)C(=O)N[C@@H](CCCNC(=N)N)C(=O)N[C@H](C(=O)N[C@@H](Cc1ccc(O)cc1)C(N)=O)[C@@H](C)O)C(C)C)[C@@H](C)O
notes: also called 51; compound 51
